Reference: publication doi:10.1101/2024.12.11.628028 (bioRxiv, 2024)

Biological target: the molecule itself
Experiment: crystal structure

B1: Nicotinamide phosphoribosyltransferase (NAMPT), human, with N terminal His-tag (enzyme)
chain: MNPAAEAEFNILLATDSYKVTHYKQYPPNTSKVYSYFECREKKTENSKLRKVKYEETVFYGLQYILNKYLKGKVVTKEKIQEAKDVYKEHFQDDVFNEKGWNYILEKYDGHLPIEIKAVPEGFVIPRGNVLFTVENTDPECYWLTNWIETILVQSWYPITVATNSREQKKILAKYLLETSGNLDGLEYKLHDFGYRGVSSQETAGIGASAHLVNFKGTDTVAGLALIKKYYGTKDPVPGYSVPAAEHSTITAWGKDHEKDAFEHIVTQFSSVPVSVVSDSYDIYNACEKIWGEDLRHLIVSRSTQAPLIIRPDSGNPLDTVLKVLEILGKKFPVTENSKGYKLLPPYLRVIQGDGVDINTLQEIVEGMKQKMWSIENIAFGSGGGLLQKLTRDLLNCSFKCSYVVTNGLGINVFKDPVADPNKRSKKGRLSLHRTPAGNFVTLEEGKGDLEEYGQDLLHTVFKNGKVTKSYSFDEIRKNAQLNIELEAAHH
B1: binds.
